In assay [1] the target is HLA-A*2402 molecule (human). The assay is described as follows: flow cytometry, acid-stripped C1R-A24 cells reconstituted with beta2m and peptide dilutions, stained with mAb 17A12. A general note: Flow cytometry measures light scatter and fluorescence of single cells or particles in a stream.
For assay [2], the target named is HLA-A*0206 molecule (human). The assay is described as follows: flow cytometry, RA2.6 (RMAS-HLA-A*0206) stabilisation assay with peptide dilutions, stained with mAb BB7.2.
The target of assay [3] is HLA-A*0201 molecule (human). The experiment in a line: flow cytometry, acid-stripped JY cells reconstituted with beta2m and peptide dilutions, stained with mAb BB7.2.

On to RVPGVAPTL (modifications not checked) [W302 peptide], for which the -log Kd was 7.67 -log Kd in assay [1], 6.61 -log Kd in assay [2] and 6.41 -log Kd in assay [3].
For ALLPAVPSL (modifications not checked) [W10 peptide], the figures for the -log Kd in assay [1], in assay [2] and in assay [3] were 9.16 -log Kd, 7.74 -log Kd and 7.84 -log Kd, respectively.

These data come from patent US20100255020A1, “METHOD FOR INDUCING CYTOTOXIC T-CELLS, CYTOTOXIC T-CELL INDUCERS, AND PHARMACEUTICAL COMPOSITIONS AND VACCINES EMPLOYING THEM” (NEC CORPORATION, priority 2007, published 2010).
